This data set has as its target p53 wild-type (UniProt P04637). The data set is described as follows: cell_activity. Particulars: dual luciferase activation in H1299 (p53 null).

Sequence of p53 wild-type (P04637 whole entry): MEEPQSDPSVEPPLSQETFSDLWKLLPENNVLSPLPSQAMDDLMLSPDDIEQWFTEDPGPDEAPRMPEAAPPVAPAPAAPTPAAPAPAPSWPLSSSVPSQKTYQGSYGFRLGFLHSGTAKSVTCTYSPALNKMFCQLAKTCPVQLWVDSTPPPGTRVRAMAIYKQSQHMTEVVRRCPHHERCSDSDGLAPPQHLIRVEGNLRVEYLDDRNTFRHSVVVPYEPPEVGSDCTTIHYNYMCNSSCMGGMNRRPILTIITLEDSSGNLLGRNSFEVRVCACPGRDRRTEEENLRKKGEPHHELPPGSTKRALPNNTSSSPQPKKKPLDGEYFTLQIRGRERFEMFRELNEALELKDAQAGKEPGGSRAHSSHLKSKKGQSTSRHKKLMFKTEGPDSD

“killin promoter 140 bp fragment with p53 site (pGL3-Killin)” showed an activity of 70 fold.

The values are drawn from US20100261778.
